From US11268099

Experiments:
[1] = tested on: 2G12 (anti-HIV-1 gp120 carbohydrate-binding monoclonal antibody); assay: BLI; conditions: N are Man9-derivatized dU (3 sites); 5' A5 spacer [26,33,39]; 1:1 global fit; kon 2.04e4 /M/s, koff 2.53e-4 /s
[2] = tested on: 2G12 (anti-HIV-1 gp120 carbohydrate-binding monoclonal antibody); assay: filter

## AAAAACGGGTACGGGAGACCCACGGTGCAACCTACGGATAAAGCACACAGGAGACGACAAG [Clone 1 biotinylated glycoDNA (BLI)]
[1]
  Kd: 12.4 nM

## CGGGTACGGGAGACCCACAGTGCAACCTACGGATAAAGCACACAGGAGACGACAAG [Clone 2 glycoDNA]
[2]; all T in random region are EdU-Man9 (3 sites), 20 mM Tris pH 7.5, 150 mM NaCl, 4 mM MgSO4, BSA, binding at 37 C also shown in FIG. 11
  Kd: 1.7 nM

## CGGGTACGGGAGACCCATGGTGCAACCTACGGATAAAGCACACAGGAGACGACAAG [Clone 7 glycoDNA]
[2]; all T in random region are EdU-Man9, moderate binding, Mg2+ buffer
  Kd: 12 nM
